Results taken from the nanobody polyreactivity screen of Harvey et al. (2022).

experiment: yeast display, Sf9 membrane polyspecificity reagent, FACS + sequencing; frameworks hold sequencing errors
Procedure, shortened: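 Nanobodies from a synthetic yeast display library (Saccharomyces cerevisiae BJ5465), induced 36–48 hours with galactose, were stained 1 hour at 4 °C with 10% biotinylated, detergent-solubilized Sf9 membrane reagent, enriched on streptavidin microbeads, then FACS-sorted. Anti-HA (expression) and streptavidin (reagent binding) fluorescence set low and high (top ~1%) gates. Polyreactivity labels come from the gate of origin. Genes were colony-PCR amplified, MiSeq 2 × 250 sequenced and filtered by CDR length.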

Sequence	polyreactivity (PSR sort gate)
QVQLVESGGGLVQAGGSLRLSCAASGSTSWIYAMGWYRQAPGKERELVAAISGRDGSTNYADSVKGRFTISRDNAKNTVYLQMNSLKPEDTAVYYCNATGRRFNRYGGDYWGQGTQVTVSS	high polyreactivity
QVQLVESGGGLVQAGGSLRLSCAASGSTSWIYAMGWYRQAPGQERELVAAISGRDGSTNYADSVKGRFTISRDNAKNTVYLQMNSLKPEDTAVYYCASYLYKSRYLPEYDYWGQGTQVTVSS	high polyreactivity
QVQLVESGGGLVQAGGSLRLSCAASGSTSYDYAMGWYRQAPGKERELVAAISRRGGSTYYADSVKGRFTISRDNAKNTVYLQMNSLKPEDTAVYYCAARSYSYLGWFSYDYWGQGTQVTVSS	low polyreactivity
QVQLVESGGGLVQAGGSLRLSCAASGSTSYVYATGGYRQAPGKERELVAAISGSGGRTYYADSVKGRFTISRDNAKNTVYLQMNSLKPEDTAVYYCNALPRPSYPFDYWGQGTQVTVSS	high polyreactivity
QVQLVESGGGLVQAGGSLRLSCAASGSTSYYYAMGWYRQAPGKERELVAAITTSGGSTYYADSVKGRFTISRDNAKNTVYLQMNSLKPEDTAVYYCATGYLYFTSYRYNYWGQGTQVTVSS	low polyreactivity
QVQLVESGGGLVQAGGSLRLSCAASGSTVYVYTMGGYRQAPGKERELVAANSLSGDNTYYADSVKGRFTISRDNAKNTVYLQKNSLKPEATAVYYCNADIIGFPADYLYDYWGQGTQVTVSS	low polyreactivity
QVQLVESGGGLVQAGGSLRLSCAASGSTVYYNAMGWYRQAPGKERELVADISWRGGITYYADSVKGRFTISRDNAKNTVYLQMNSLKPAETAVYYCNADAESFDDGYWGQGTQVTVSS	low polyreactivity
QVQLVESGGGLVQAGGSLRLSCAASGSTWNRNPMGWYRQAPGKERELVAAISWRGDSTSYADSVKGRFTISRDNAKNTVYLQMNSLKPEDTAVYYCATAHDYAFYRYWYVPSEYNYWGQGTQVTVSS	low polyreactivity
QVQLVESGGGLVQAGGSLRLSCAASGSTYAGNAIGWSRQAPRKERELVAAIDSSTGSTYYADSVKGRFTISRDNAKNTVYLQMNSLNPEDTAVYYCNKTSFLVKLDYWGQGTQVTVSS	low polyreactivity
QVQLVESGGGLVQAGGSLRLSCAASGSTYAIYAMGSYRQAPGKERELVASISGGSTNYADSVKGRFTISRDNAKNTVYLQMNSLKPEDTAVYYCAARGALHHWYRYDYWGQGTQVTVSS	low polyreactivity
QVQLVESGGGLVQAGGSLRLSCAASGSTYGYTMGWYRQAPGKERELVADITSGGTTNYADSVKGRFTISRDNAKNTVYLQMNSLKPEDTAVYYCATRGAEWGWLGSIFNPFDYWGQGTQVTVSS	low polyreactivity
QVQLVESGGGLVQAGGSLRLSCAASGSTYRIYAMGWYRQAPGKERELVAAITRSGGSTYYADSVKGRFTISRDNAKNTVYLQMNSMKPEDTAVYYCNRRGAYPAKYDYWGQGTQVTVSS	high polyreactivity
QVQLVESGGGLVQAGGSLRLSCAASGSTYRTYPMGWYRQAPGKERELVASISYRSGRTYYADSVKGRFTISRDNAKNTVYLPMNSLKPEDTAVYYCNSRMYGVISRMDYWGQGTQVTVSS	high polyreactivity
QVQLVESGGGLVQAGGSLRLSCAASGSTYSYYAMGWYRQAPGKERELVAAITTSGGRTYYADSVKGRFTISRDNAKNTVYLQMNSLKPEDTAVYYCNARRHWYSAWGYDYWGQGTQVTVSS	high polyreactivity
QVQLVESGGGLVQAGGSLRLSCAASGSTYVSNAMGWYRQAPGKERELVAAISTGGGTCYADSVKGRFTISRDNAKNTVYLQMNSLKPEDTAVYYCNAVYVWWDGWGLYYWGQGTQVTVSS	low polyreactivity
QVQLVESGGGLVQAGGSLRLSCAASGSTYYYAMGWYIQEPGKEREFVAAISASGGSTYYADSVKGRFTISRDNAKNTVYLQMNSLKPDDTAGYYCTPLGYGYWGQGTQVTVSS	high polyreactivity
QVQLVESGGGLVQAGGSLRLSCAASGSTYYYAMGWYREAPGKERELVAAISSSSGSTYYADSVKGRFTISRDNAKNTVYLQLNSLKPEDTAVYYCAAEGYKGWVYEYDYWGQGTQVTVSS	low polyreactivity
QVQLVESGGGLVQAGGSLRLSCAASGSTYYYYAMGSYRPAPGKERELVAAINTSGGITYYADSVKGRFTISRDNAKNTVYLQMNSLKPEDTAVYYCAARNRSYCGTFGSYNYDYWGQGTQVTVSS	high polyreactivity
QVQLVESGGGLVQAGGSLRLSCAASGSTYYYYAMGWYRQAPGKERELVASIRSGGNTNYADSVKGRFTISRDNAKNTVYLQMKSLIPEDTAVYYCASRYMGSYSGGNYWGQVTQVTVSS	low polyreactivity
QVQLVESGGGLVQAGGSLRLSCAASGSVFGKYAMGWYRQAPGKERELVAAISRSGGSTYYADSVKGRFTISRDNAKNTVYLQMNSLKPEDTAVYYCAADSPGPWRYDYWGQGTQVTVSS	high polyreactivity
QVQLVESGGGLVQAGGSLRLSCAASGSYTMGWYRQAPGKERELVAAISKSCGSTYYADSVKGRFTISRDNAKNTVYLQMNSLKPDDTAVYYCAAVGWWGTYDYWGQGTQVTVSS	high polyreactivity
QVQLVESGGGLVQAGGSLRLSCAASGTFAFYTMGWYRPAPGKERELVAAISWDGGDTYYADSVKGRFTISRDNAKNTVYLQMNSLKPEDTAVYYCAADYSNSGYGYWGQGTQVTVSS	low polyreactivity

Sequence	polyreactivity (PSR sort gate)
QVQLVESGGGLVQAGGSLRLSCAASGTFDYYDMGWYRQAPGKERELVAGITSGGSTDYADSVKGRFTISRDNAKNTVYLQMNSLKPEDTAVYYCAADPFRIHTYDYWGQGTQVTVSS	low polyreactivity
QVQLVESGGGLVQAGGSLRLSCAASGTFKWYAMGWYRQAPGKERELVAVISSSSSTNYADSVKGRFTISRDNAKNTVYLQMNSLKPKIPAVYYCNAKWTTLFDYWGQGTQVTVSS	high polyreactivity
QVQLVESGGGLVQAGGSLRLSCAASGTFPGNAMGWYRQSPGKERELVATITRGGRTYYADSVKGRFTISRDNAKHTVYLQMNSLKPEDTAVYYCNTRVYFGKIRGYDYWGQGTQVTVSS	high polyreactivity
QVQLVESGGGLVQAGGSLRLSCAASGTFQYNAMGWYRQAPGKERELLAAITSGGSTNYADSVKGRFTISRDNAKNTVYLQMNSLKPEDTAVYYCAAVRRYRASRGSLYYYWGQGTQVTVSS	high polyreactivity
QVQLVESGGGLVQAGGSLRLSCAASGTFSFYALGWYRHAPGKERELVATIRSGGRTYYADSVKGRFTISRDTAKNTVYLQMNSLKPEDTAVYYCAKTGFLGLRQYGYWGQGTQVTVSS	high polyreactivity
QVQLVESGGGLVQAGGSLRLSCAASGTFVTYMGWYRQAPGKERELVAAIRNGGSTNYADSVKGRFTISRDNAKNTVYLQMNSLKPEDTAVYYCAARVTYSRGYRGGSRTKYDYWGQGTQVTVSS	low polyreactivity
QVQLVESGGGLVQAGGSLRLSCAASGTFYKYAMGWYRQAPGKERELVAAISWRGGRTYADSVKGRFKISRDNAKNTVYLQMNSLKPEDTAVYYCNKRFYPEHYYWGQGTQVTVSS	high polyreactivity
QVQLVESGGGLVQAGGSLRLSCAASGTIFSRNAMGWYRQAPGKERELVAAITGSGSSTYYADSVKGRFTISRDNAKNTVYLQMNSLKPEDTAVYYCNAARVYLSEWGQGTQVTVSS	high polyreactivity
QVQLVESGGGLVQAGGSLRLSCAASGTISVFYAKGWYRQAPGKEREFVAAISWRGGRTYYADSVKARFTISRDNAKNTVYLQMNSLKPEDTAVYYCAKDIVRGRSSRYDYWGQGTQVTVSS	high polyreactivity
QVQLVESGGGLVQAGGSLRLSCAASGTNGMGWYRQAPGKERELVAAISGSGGSTYYADSVKGRFTISRDNAKNTVYLQMNSLKPEDTAVYYGAADSIQYTARPYDYWGQGTQVTVSS	low polyreactivity
QVQLVESGGGLVQAGGSLRLSCAASGTTFAGNAMGWYRQAPGKERELVAAITFSGGRTDYADSVKGCFTISRDNAKNTVYLQMNSLKPEDTAVYYCAAPADDTVHYQNYYWGQGTQVTVSS	low polyreactivity
QVQLVESGGGLVQAGGSLRLSCAASGTTFAVYTMGWYRQAPGKERELSTSYADSVKGRFTISRDNAKNTVYLQMNILKQEDTAVYYCNRDFYEFDSNSYRFDYWGQGTQVTVSS	low polyreactivity
QVQLVESGGGLVQAGGSLRLSCAASGTTFRIYSMGWYRQAPGKERELVAGITRRGGSTFYADSVKGRFTISRDTAKNTVYFQMNSLKPEDTAVYYCAARFRGGMDYWGQGTQVTVSS	high polyreactivity
QVQLVESGGGLVQAGGSLRLSCAASGTTFSGNAMGWYRQAPGKERELVAAITRSGSRTYYADSVKGRFTISRDNAKNTVYLQMHSLKPEDTAVYYCAKVGRTGDDYYYWGQGTQVTVSS	high polyreactivity
QVQLVESGGGLVQAGGSLRLSCAASGTTFYYNAMGWYRQAPGKERELVARISRSGGSTYADSVKGRFTISRDNAKNTVYLQMNSLKPEDTAVYYCNADAYGTPEFTSYAVRYDYWGQGTQVTVSS	low polyreactivity
QVQLVESGGGLVQAGGSLRLSCAASGTTIPRNAMGWYRQAPGKERELVAAITSGGSTNYADSVKGRFTISRDNAKNTVYLQMNSLKPEDTAVYYCAADEQVNTQYVVWGDYWGQGTQVTVSS	low polyreactivity
QVQLVESGGGLVQAGGSLRLSCAASGTTLVRYAMGWYRQAPGKERELVASISYSGGSTHYADSVKGRFTISRDNAKNTVYLQMNSLKPEDTAVYYCAARPYYSWGGHYYWGQGTQVTVSS	high polyreactivity
QVQLVESGGGLVQAGGSLRLSCAASGTTYYNAMGWYRQAPGKERELVAAIRFRSGSTYYADSVKGRFTISRDNAKNTVYLQMNSLKPEDTAVYYFAADNKRSWRYAYNYWGQGTQVTVSS	high polyreactivity
QVQLVESGGGLVQAGGSLRLSCAASGVIFEYTAMGGYRQAPGKERELVAAITSSGGSTYYADSVKGRFTISRDKAKNTVYLQMNSLKPEDTAVYYCARVRRSAYYQDYYSWGQGTQVTVSS	high polyreactivity
QVQLVESGGGLVQAGGSLRLSCAASGYGMGWYRQAPGKEREFVAAITSGGSTNYAVSVKGRFTISRDNAKNTVYLHMNSLKPEDSAVYYCAAAYSLYGHRYDYWGQGTQVTVSS	high polyreactivity
QVQLVESGGGLVQAGGSLRLSCAASGYIFADYAMGWYRQAPGKEREFVARIRYRDGSTYYADSVKGRFTISRDNAKNTVYLQMNSLKPEDTAVYYCAAQLGRYSYYPMDYWGKGTQVTVSS	high polyreactivity
